The text below walks through data of patent US20240066142A1, “A UPAR (UROKINASE PLASMINOGEN ACTIVATOR RECEPTOR)-TARGETING CONJUGATE” (FLUOGUIDE A/S, priority 2021, published 2024).

Primed or numbered codes have the meaning given here. [ ]: non-standard residue; d: D form. Cha = N[C@@H](CC1CCCCC1)C(=O)O; IRDye800CW′ = not defined here; AEEA = NCCOCCOCC(=O)O

The target in experiment [1] is human uPAR (Homo sapiens, UniProt Q03405). The experiment is described as follows: SPR binding of conjugate or uPA to immobilized His-tagged recombinant human uPAR. As to the method: SPR was also applied to determine the KD-value of binding of the uPAR-binding conjugate to uPAR.
The uPAR-binding conjugates as well as the endogenous ligand uPA were analyzed in 2-fold dilution series from low to high concentration with a running buffer injection in between each injection. Injection of uPAR-binding conjugate or uPA (at a rate of 50 μL/minute) was performed for 120 seconds (association), and dissociation was assessed for 120 s (at a rate of 50 μL/minute). Running buffer was PBS supplemented with 0.01% Tween-20 and 50 μM EDTA).
Binding affinities were determined using the above described SPR-based approach, measuring binding affinities (KD) of the uPAR-targeting conjugates to immobilized human uPAR protein (the tumor target protein).

For experiment [2], the target named is uPAR·uPA interaction (Homo sapiens, UniProt Q03405). The experiment can be described thus: SPR competition: inhibition of the uPAR·uPA interaction (immobilized human uPA, 2.5 nM uPAR). It is filed as binding. As to conditions: uPAR 2.5 nM pre-incubated 10 minutes with conjugate. As to the method: Surface plasmon resonance (SPR) was applied to determine the IC50-value of uPAR-targeting conjugate for its ability to inhibit the uPAR·uPA interaction. In brief, human recombinant uPA, which is the natural ligand for uPAR, was immobilized to the SPR sensor chip. Binding of uPAR at a concentration of 2.5 nM in the absence of UPAR-binding conjugate was examined, followed by analyses of a fixed uPAR concentration (2.5 nM) incubated with a 2-fold dilution series of uPAR-binding conjugate pre-incubated for 10 minutes at room temperature prior to injection. uPAR injection (at a rate of 50 μL/minute) was performed for 300 s (association), and dissociation was assessed for 500 s (at a rate of 50 μL/minute). The uPAR/uPAR-binding conjugate complex was injected from low to high concentration with a regeneration step followed by a buffer injection in between each injection. Regeneration was performed for 20 s by injection of 0.5 M NaCl+0.1 M Acetic acid at a 30 μL/min flow rate, followed by running buffer wash (running buffer: PBS supplemented with 0.01% Tween-20 and 50 μM EDTA).
uPAR·uPA interaction, sequence (Q03405 23-305): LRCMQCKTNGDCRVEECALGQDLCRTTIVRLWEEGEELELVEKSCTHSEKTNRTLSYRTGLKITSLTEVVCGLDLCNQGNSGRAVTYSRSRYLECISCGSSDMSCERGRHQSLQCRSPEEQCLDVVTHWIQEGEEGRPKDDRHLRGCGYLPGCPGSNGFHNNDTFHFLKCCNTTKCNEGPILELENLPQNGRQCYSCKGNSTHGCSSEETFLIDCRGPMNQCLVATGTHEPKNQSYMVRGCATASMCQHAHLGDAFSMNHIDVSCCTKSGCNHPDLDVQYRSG
From this type of SPR analysis, the IC50 values for uPAR-targeting conjugates were determined.
The top signal represents uPAR binding in the absence of uPAR-targeting conjugate.

Experiment [3] concerns the target recombinant human uPAR containing a His-tag (immobilized to a NTA chip) (human) (UniProt Q03405). The experiment can be described thus: SPR, His-tagged human uPAR on NTA chip, steady-state responses.
For experiment [4], the target named is human uPAR (urokinase Plasminogen Activator Receptor), in solution at 2.5 nM in the competition SPR assay (human) (UniProt Q03405). The experiment can be described thus: SPR competition: 2.5 nM uPAR pre-incubated with dilution series of conjugate, injected over immobilised human uPA.
human uPAR (urokinase Plasminogen Activator Receptor), in solution at 2.5 nM in the competition SPR assay (human), sequence (Q03405 23-305 limits assumed): as the sequence (Q03405 23-305) above

recombinant human uPAR containing a His-tag (immobilized to a NTA chip) (human), sequence (Q03405 23-305 limits assumed): as the sequence (Q03405 23-305) above

As for `CC(C)C[C@H](NC(=O)[C@H](Cc1ccc(O)cc1)NC(=O)[C@@H](CCCNC(=N)N)NC(=O)[C@@H](CO)NC(=O)[C@H](Cc1ccccc1)NC(=O)[C@H](CC1CCCCC1)NC(=O)[C@H](CC(=O)O)NC(=O)COCCOCCNC(=O)COCCOCCNC(=O)[C@H](CCC(=O)O)NC(=O)[C@H](CCC(=O)O)NC(=O)CCCCCN1C(=CC=C2CCCC(C=CC3=[N+](CCCCS(=O)(=O)[O-])c4ccc(S(=O)(=O)O)cc4C3(C)C)=C2Oc2ccc(S(=O)(=O)O)cc2)C(C)(C)c2cc(S(=O)(=O)O)ccc21)C(=O)N[C@@H](Cc1c[nH]c2ccccc12)C(=O)N[C@@H](CO)C(=O)O` [Compound example 2, IRDye800CW-EE-020c-020c-DChaFsrYLWS-OH], the association rate constant (kon) (as a rule, the rate constant with which the complex forms) in experiment [1] (on-rate binding) was at least 4.6e+06 M⁻¹ s⁻¹.
Take “Compound example 1: uPAR-targeting conjugate based on the fluorophore ICG and the peptide AE105 (DXFSRYLWS; D-residues; non-natural residues; cyclised or stapled)”: the Kd (usually a measure of binding affinity in units of concentration) in experiment [1] (KD from steady state binding responses where Kon too fast) was 2000 nM. For the same molecule, the Kon in experiment [1] (on-rate binding) is at least 4.6e+06 M⁻¹ s⁻¹. In addition, the IC50 – broadly, the concentration that inhibits the measured activity by half – in experiment [2] was 7 nM.
Take {IRDye800CW′}-EE[AEEA][AEEA]D[Cha]F[dS][dR]YLWS-OH: in experiment [3], the dissociation constant (Kd) was found to be 325 nM. In addition, the IC50 in experiment [4] was 24 nM.
